Source: article PMC5959753

Substrate: C[N+](C)(C)[C@@H](Cc1cnc([S+]([O-])C[C@H](N)C(=O)O)[nH]1)C(=O)[O-]
Experiment: purified protein
Conditions: pH 8.0, 25 °C, 1 mM DTT

B1: Egt2 (Neurospora crassa OR74A) (protein)
chain: MVATTVELPLQQKADAAQTVTGPLPFGNSLLKEFVLDPAYRNLNHGSFGTIPSAIQQKLRSYQTAAEARPCPFLRYQTPVLLDESRAAVANLLKVPVETVVFVANATMGVNTVLRNIVWSADGKDEILYFDTIYGACGKTIDYVIEDKRGIVSSRCIPLIYPAEDDDVVAAFRDAIKKSREEGKRPRLAVIDVVSSMPGVRFPFEDIVKICKEEEIISCVDGAQGIGMVDLKITETDPDFLISNCHKWLFTPRGCAVFYVPVRNQHLIRSTLPTSHGFVPQVGNRFNPLVPAGNKSAFVSNFEFVGTVDNSPFFCVKDAIKWREEVLGGEERIMEYMTKLAREGGQKVAEILGTRVLENSTGTLIRCAMVNIALPFVVGEDPKAPVKLTEKEEKDVEGLYEIPHEEANMAFKWMYNVLQDEFNTFVPMTFHRRRFWARLSAQVYLEMSDFEWAGKTLKELCERVAKGEYKESA
Q: Which Km does the source give for B1 here?
A: 155 ± 10 µM

Q: What about the kcat of the same protein?
A: 8.7 ± 0.1 s⁻¹
